From US20190225692A1 (JUNO THERAPEUTICS, published 2019)

What was measured:
[1] = biological target: HPV 16 E7(11-19) peptide in the context of HLA-A02:01 on target cells (human; HPV 16); assay: cell-based or functional assay
[2] = biological target: HPV 16 E6(29-38) peptide in the context of HLA-A02:01 on target cells (human; HPV 16); assay: cell-based or functional assay
[3] = biological target: T1, HLA-A2/E6 (29-38) tetramer (human; HPV 16); assay: tetramer flow cytometry; transfected Jurkat-derived cells, CD8+ population
T1 construct: also called E6(29-38) peptide-MHC tetramer; E6(29-38)-loaded tetramer
Procedure: (§1) For transfection, the CD4+ and CD4+/CD8+ cell mixtures were transiently transfected with TCR-encoding plasmids and 48 hours after transfection, cells were assessed by flow cytometry for (1) binding of the target peptide in the context of an MHC molecule (HLA:A02:01) by staining with an E6(29-38) peptide- or an E7(11-19) peptide-MHC tetramer reagent, and/or (2) CD8+ independent binding of the target by co-staining the tetramer-labeled cells with an anti-CD8 antibody.

[4] = biological target: T1, HLA-A2/E6 (29-38) tetramer; assay: tetramer flow cytometry; transfected 1:1 CD4+ and CD4+/CD8+ Jurkat-derived cells;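 further: cell mixtures transiently transfected with TCR-encoding plasmids, analysed by flow cytometry 48 h later after HLA-A*02:01 E6 tetramer staining combined with anti-CD8 antibody co-staining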
Procedure: as §1

B1: modified version of TCR 4 (codon optimized, cysteine modified) (TCR)
TCR alpha: DAKTTQPNSMESNEEEPVHLPCNHSTISGTDYIHWYRQLPSQGPEYVIHGLTSNVNNRMASLAIAEDRKSSTLILHRATLRDAAVYYCILLVIRGTSYGKLTFGQGTILTVHPNIQNPDPAVYQLRDSKSSDKSVCLFTDFDSQTNVSQSKDSDVYITDKCVLDMRSMDFKSNSAVAWSNKSDFACANAFNNSIIPEDTFFPSPESSCDVKLVEKSFETDTNLNFQNLSVIGFRILLLKVAGFNLLMTLRLWSS
TCR beta: DTGVSQDPRHKITKRGQNVTFRCDPISEHNRLYWYRQTLGQGPEFLTYFQNEAQLEKSRLLSDRFSAERPKGSFSTLEIQRTEQGDSAMYLCASSPGGGNTEAFFGQGTRLTVVEDLNKVFPPEVAVFEPSEAEISHTQKATLVCLATGFFPDHVELSWWVNGKEVHSGVCTDPQPLKEQPALNDSRYCLSSRLRVSATFWQNPRNHFRCQVQFYGLSENDEWTQDRAKPVTQIVSAEAWGRADCGFTSVSYQQGVLSATILYEILLGKATLYAVLVSALVLMAMVKRKDF
With B1 the “% CD8+/IC IFNγ+; transduced primary CD8+ T cells with T2 cells pulsed with 10 uM E7(11-19) peptide (control peptide), E:T 10:1, 4 h” value [1] was 2.5% and the “% CD8+/IC IFNγ+; transduced primary CD8+ T cells with T2 cells pulsed with 10 uM E6(29-38) peptide, E:T 10:1, 4 h” value [2] was 94.2%.

B2: modified version of TCR 14 (codon optimized, cysteine modified) (TCR)
TCR alpha: ILNVEQSPQSLHVQEGDSTNFTCSFPSSNFYALHWYRWETAKSPEALFVMTLNGDEKKKGRISATLNTKEGYSYLYIKGSQPEDSATYLCASQTGANNLFFGTGTRLTVIPYIQNPDPAVYQLRDSKSSDKSVCLFTDFDSQTNVSQSKDSDVYITDKCVLDMRSMDFKSNSAVAWSNKSDFACANAFNNSIIPEDTFFPSPESSCDVKLVEKSFETDTNLNFQNLSVIGFRILLLKVAGFNLLMTLRLWSS
TCR beta: DVKVTQSSRYLVKRTGEKVFLECVQDMDHENMFWYRQDPGLGLRLIYFSYDVKMKEKGDIPEGYSVSREKKERFSLILESASTNQTSMYLCASTFWGQRRTEAFFGQGTRLTVVEDLNKVFPPEVAVFEPSEAEISHTQKATLVCLATGFFPDHVELSWWVNGKEVHSGVCTDPQPLKEQPALNDSRYCLSSRLRVSATFWQNPRNHFRCQVQFYGLSENDEWTQDRAKPVTQIVSAEAWGRADCGFTSVSYQQGVLSATILYEILLGKATLYAVLVSALVLMAMVKRKDF
For B2, the “% cells in E6 tet+/CD8+ quadrant” value [3] was 38.4%, the “% cells in E6 tet+/CD8- quadrant” value [3] was 0.04% and the “% cells in E6 tet-/CD8+ quadrant” value [3] was 59.7%. The “% cells in E6 tet-/CD8- quadrant” value [3] was 1.8%.

B3: modified version of TCR 7 (codon optimized, cysteine modified) (TCR, V domains shown)
V domain 1: KNQVEQSPQSLIILEGKNCTLQCNYTVSPFSNLRWYKQDTGRGPVSLTIMTFSENTKSNGRYTATLDADTKQSSLHITASQLSDSASYICVVSRDNYGQNFVFGPGTRLSVLP
V domain 2: EPEVTQTPSHQVTQMGQEVILRCVPISNHLYFYWYRQILGQKVEFLVSFYNNEISEKSEIFDDQFSVERPDGSNFTLKIRSTKLEDSAMYFCAITDRTNYGYTFGSGTRLTVVE
For B3, the “% CD8+/IC IFNγ+; transduced primary CD8+ T cells with T2 cells pulsed with 10 uM E6(29-38) peptide, E:T 10:1, 4 h” value [2] was 70.5%.

B4: TCR 22 (codon optimized, cysteine modified version) (TCR, V domains shown)
V domain 1: GQNIDQPTEMTATEGAIVQINCTYQTSGFNGLFWYQQHAGEAPTFLSYNVLDGLEEKGRFSSFLSRSKGYSYLLLKELQMKDSASYLCAVRARMDSNYQLIWGAGTKLIIKP
V domain 2: DAGVTQSPTHLIKTRGQHVTLRCSPISGHKSVSWYQQVLGQGPQFIFQYYEKEERGRGNFPDRFSARQFPNYSSELNVNALLLGDSALYLCASSRTENYGYTFGSGTRLTVVE
With B4 the “% cells in E6 tet+/CD8+ quadrant” value [3] was 51.2%, the “% cells in E6 tet+/CD8- quadrant” value [3] was 0.14% and the “% cells in E6 tet-/CD8+ quadrant” value [3] was 47.3%. The “% cells in E6 tet-/CD8- quadrant” value [3] was 1.38%.

B5: modified version of TCR 5 (codon optimized, cysteine modified) (TCR, V domains shown)
V domain 1: AQKITQTQPGMFVQEKEAVTLDCTYDTSDQSYGLFWYKQPSSGEMIFLIYQGSYDEQNATEGRYSLNFQKARKSANLVISASQLGDSAMYFCAMREGTGTSYGKLTFGQGTILTVHP
V domain 2: DVKVTQSSRYLVKRTGEKVFLECVQDMDHENMFWYRQDPGLGLRLIYFSYDVKMKEKGDIPEGYSVSREKKERFSLILESASTNQTSMYLCASSPWGETHQPQHFGDGTRLSILE
B5 was tested, and the “% CD8+/IC IFNγ+; transduced primary CD8+ T cells with T2 cells pulsed with 10 uM E7(11-19) peptide (control peptide), E:T 10:1, 4 h” value [1] was 7.22% and the “% CD8+/IC IFNγ+; transduced primary CD8+ T cells with T2 cells pulsed with 10 uM E6(29-38) peptide, E:T 10:1, 4 h” value [2] was 43.7%.

B6: TCR 18 (codon optimized, cysteine modified version) (TCR, V domains shown)
V domain 1: KQEVTQIPAALSVPEGENLVLNCSFTDSAIYNLQWFRQDPGKGLTSLLLIQSSQREQTSGRLNASLDKSSGRSTLYIAASQPGDSATYLCAEGNAGGTSYGKLTFGQGTILTVHP
V domain 2: DVKVTQSSRYLVKRTGEKVFLECVQDMDHENMFWYRQDPGLGLRLIYFSYDVKMKEKGDIPEGYSVSREKKERFSLILESASTNQTSMYLCASSFWGRSNSPLHFGNGTRLTVTE
With B6 the “% cells in E6 tet+/CD8+ quadrant” value [3] was 50.4%, the “% cells in E6 tet+/CD8- quadrant” value [3] was 0.045% and the “% cells in E6 tet-/CD8+ quadrant” value [3] was 47.7%. The “% cells in E6 tet-/CD8- quadrant” value [3] was 1.86%, the “% cells in E6 tet+/CD8+ quadrant” value [4] was 23.3% and the “% cells in E6 tet+/CD8- quadrant” value [4] was 3.61%. For the same binder, the “% cells in E6 tet-/CD8+ quadrant” value [4] was 12% and the “% cells in E6 tet-/CD8- quadrant” value [4] was 61.1%.

B7: TCR 24 (codon optimized, cysteine modified version) (TCR, V domains shown)
V domain 1: AQKITQTQPGMFVQEKEAVTLDCTYDTSDQSYGLFWYKQPSSGEMIFLIYQGSYDEQNATEGRYSLNFQKARKSANLVISASQLGDSAMYFCAMREGRGDSWGKLQFGAGTQVVVTP
V domain 2: DVKVTQSSRYLVKRTGEKVFLECVQDMDHENMFWYRQDPGLGLRLIYFSYDVKMKEKGDIPEGYSVSREKKERFSLILESASTNQTSMYLCASSPFGRGSYEQYFGPGTRLTVTE
For B7, the “% cells in E6 tet+/CD8+ quadrant” value [3] was 29.1%, the “% cells in E6 tet+/CD8- quadrant” value [3] was 0.13% and the “% cells in E6 tet-/CD8+ quadrant” value [3] was 66.2%. The “% cells in E6 tet-/CD8- quadrant” value [3] was 4.51%, the “% cells in E6 tet+/CD8+ quadrant” value [4] was 55% and the “% cells in E6 tet+/CD8- quadrant” value [4] was 23.5%. For the same binder, the “% cells in E6 tet-/CD8+ quadrant” value [4] was 5.56% and the “% cells in E6 tet-/CD8- quadrant” value [4] was 16%.

B8: TCR 23 (codon optimized, cysteine modified version) (TCR, V domains shown)
V domain 1: AQKITQTQPGMFVQEKEAVTLDCTYDTSDQSYGLFWYKQPSSGEMIFLIYQGSYDEQNATEGRYSLNFQKARKSANLVISASQLGDSAMYFCAMSPPGGSARQLTFGSGTQLTVLP
V domain 2: DVKVTQSSRYLVKRTGEKVFLECVQDMDHENMFWYRQDPGLGLRLIYFSYDVKMKEKGDIPEGYSVSREKKERFSLILESASTNQTSMYLCASSPWGQSNQPQHFGDGTRLSILE
In the case of B8, the “% cells in E6 tet+/CD8+ quadrant” value [3] is reported as 43.6%, the “% cells in E6 tet+/CD8- quadrant” value [3] is reported as 0.18% and the “% cells in E6 tet-/CD8+ quadrant” value [3] is reported as 54.1%. For the same binder, the “% cells in E6 tet-/CD8- quadrant” value [3] was 2.14%, the “% cells in E6 tet+/CD8+ quadrant” value [4] was 52.5% and the “% cells in E6 tet+/CD8- quadrant” value [4] was 22.5%. The “% cells in E6 tet-/CD8+ quadrant” value [4] was 5.19% and the “% cells in E6 tet-/CD8- quadrant” value [4] was 19.7%.

B9: TCR 17 (codon optimized, cysteine modified version) (TCR, V domains shown)
V domain 1: AQKITQTQPGMFVQEKEAVTLDCTYDTSDPSYGLFWYKQPSSGEMIFLIYQGSYDQQNATEGRYSLNFQKARKSANLVISASQLGDSAMYFCAMREGRGDKIIFGKGTRLHILP
V domain 2: DVKVTQSSRYLVKRTGEKVFLECVQDMDHENMFWYRQDPGLGLRLIYFSYDVKMKEKGDIPEGYSVSREKKERFSLILESASTNQTSMYLCASSLWGRSNQPQHFGDGTRLSILE
In the case of B9, the “% cells in E6 tet+/CD8+ quadrant” value [3] is reported as 34.7%, the “% cells in E6 tet+/CD8- quadrant” value [3] is reported as 0.17% and the “% cells in E6 tet-/CD8+ quadrant” value [3] is reported as 63.6%. The “% cells in E6 tet-/CD8- quadrant” value [3] was 1.53%, the “% cells in E6 tet+/CD8+ quadrant” value [4] was 36.2% and the “% cells in E6 tet+/CD8- quadrant” value [4] was 21.3%. For the same binder, the “% cells in E6 tet-/CD8+ quadrant” value [4] was 7.72% and the “% cells in E6 tet-/CD8- quadrant” value [4] was 34.8%.

B10: TCR 21 (codon optimized, cysteine modified version) (TCR, V domains shown)
V domain 1: AQKITQTQPGMFVQEKEAVTLDCTYDTSDQSYGLFWYKQPSSGEMIFLIYQGSYDEQNATEGRYSLNFQKARKSANLVISASQLGDSAMYFCAMREGRVTGGGNKLTFGTGTQLKVEL
V domain 2: NAGVTQTPKFQVLKTGQSMTLQCAQDMNHNSMYWYRQDPGMGLRLIYYSASEGTTDKGEVPNGYNVSRLNKREFSLRLESAAPSQTSVYFCASRPWGNQNTEAFFGQGTRLTVVE
For B10, the “% cells in E6 tet+/CD8+ quadrant” value [3] was 51.6%, the “% cells in E6 tet+/CD8- quadrant” value [3] was 0.22% and the “% cells in E6 tet-/CD8+ quadrant” value [3] was 46%. For the same binder, the “% cells in E6 tet-/CD8- quadrant” value [3] was 2.18%, the “% cells in E6 tet+/CD8+ quadrant” value [4] was 28.8% and the “% cells in E6 tet+/CD8- quadrant” value [4] was 32.7%. For the same binder, the “% cells in E6 tet-/CD8+ quadrant” value [4] was 7.16% and the “% cells in E6 tet-/CD8- quadrant” value [4] was 31.3%.

B11: TCR 27 (codon optimized, cysteine modified version) (TCR, V domains shown)
V domain 1: DAKTTQPNSMESNEEEPVHLPCNHSTISGTDYIHWYRQLPSQGPEYVIHGLTSNVNNRMASLAIAEDRKSSTLILHRATLRDAAVYYCILRVPPQSGGYQKVTFGTGTKLQVIP
V domain 2: NAGVTQTPKFQVLKTGQSMTLQCAQDMNHNSMYWYRQDPGMGLRLIYYSASEGTTDKGEVPNGYNVSRLNKREFSLRLESAAPSQTSVYFCASSEFGSLNEKLFFGSGTQLSVLE
B11 was tested, and the “% cells in E6 tet+/CD8+ quadrant” value [3] was 24.5%, the “% cells in E6 tet+/CD8- quadrant” value [3] was 0.02% and the “% cells in E6 tet-/CD8+ quadrant” value [3] was 73.5%. For the same binder, the “% cells in E6 tet-/CD8- quadrant” value [3] was 1.96%, the “% cells in E6 tet+/CD8+ quadrant” value [4] was 15.8% and the “% cells in E6 tet+/CD8- quadrant” value [4] was 3.5%. The “% cells in E6 tet-/CD8+ quadrant” value [4] was 20.1% and the “% cells in E6 tet-/CD8- quadrant” value [4] was 60.6%.
